Reference: patent US20200360469A1 (UNIVERSITY OF THE SCIENCES, published 2020)

Target: full-length (FL) BRAF^G469A, 6x-HIS/BRAF^G469A/FLAG (human, UniProt P15056 2-766)
Test: cell-based or functional assay

full-length (FL) BRAF^G469A, 6x-HIS/BRAF^G469A/FLAG, sequence (P15056 2-766 G469A): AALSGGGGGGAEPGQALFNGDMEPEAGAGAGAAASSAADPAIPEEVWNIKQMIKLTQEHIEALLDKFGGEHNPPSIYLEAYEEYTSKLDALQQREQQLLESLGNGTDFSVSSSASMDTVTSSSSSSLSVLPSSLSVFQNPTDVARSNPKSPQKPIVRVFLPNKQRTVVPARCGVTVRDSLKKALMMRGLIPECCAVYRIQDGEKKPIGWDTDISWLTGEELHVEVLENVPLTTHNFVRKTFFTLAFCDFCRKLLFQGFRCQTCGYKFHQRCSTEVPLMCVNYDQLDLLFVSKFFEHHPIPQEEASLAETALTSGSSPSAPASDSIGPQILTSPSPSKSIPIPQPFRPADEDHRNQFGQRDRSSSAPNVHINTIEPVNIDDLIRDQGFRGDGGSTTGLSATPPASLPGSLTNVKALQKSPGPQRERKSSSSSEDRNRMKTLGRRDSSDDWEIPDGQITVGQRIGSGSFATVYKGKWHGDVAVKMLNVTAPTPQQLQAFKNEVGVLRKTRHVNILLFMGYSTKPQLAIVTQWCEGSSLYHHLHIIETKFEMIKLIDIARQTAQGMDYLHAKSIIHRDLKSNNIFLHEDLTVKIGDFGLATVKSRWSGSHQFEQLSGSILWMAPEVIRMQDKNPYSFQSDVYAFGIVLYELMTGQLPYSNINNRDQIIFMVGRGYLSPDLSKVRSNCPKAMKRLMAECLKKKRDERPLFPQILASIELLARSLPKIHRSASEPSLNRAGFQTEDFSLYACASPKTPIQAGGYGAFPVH

B1: null-braftide (peptide)
peptide: THHVNILLFM
IC50, ELISA-based kinase assay (phosphorylation of kinase-dead MEK): 2500 nM
